How the values were obtained:
normal thyrocytes = assay: Cytokine protection of normal thyrocytes from chemotherapy-induced apoptosis; format: cell-based, human; conditions: 48 h pre-treatment, rhIL-4 20 ng/ml or rhIL-10 40 ng/ml, then drugs for 12 h
Procedure: Thyroid cell purification and culture. Thyroid tissues from normal, PTC, FTC and UTC were digested for 2 hours with collagenase (1.5 mg/ml) (Gibco BRL, Grand Island, N.Y.) and hyaluronidase (20 μg/ml) (Sigma Chemical Co., St. Louis, Mo.) in DMEM. Thyrocytes were purified from the digested tissues by hematopoietic cell depletion with anti-CD45-coupled beads (Dynal, Wirral Merseyside, U.K.) and 12 hours of flask adherence, which allowed removal of other cells. After additional 12 hours of culture, thyroid cells were allowed to grow in monolayer for the immunocytochemistry or detached with trypsin+EDTA following exposure to cytokines or chemotherapeutic agents for functional and protein analyses. […]
Cell death quantitation. Apoptotic events of neoplastic thyrocytes were evaluated by DNA staining and flow cytometry analysis. […] The percentage of hypodiploid nuclei was evaluated as previously described. […] The number of viable cells was detected by CellTiter Aqueous Assay Kit (Promega Corporation, WI, USA) adding 20 μl of solution reagent directly to culture wells, incubating for 1 hours at 37° C. and recording absorbance at 490 nm. […]

[1] = system: Bcl-xL and cFlip/FLAME-1 in bladder tumor cells (RT112); assay: Western blot of apoptosis-related proteins in RT112 cells; format: cell-based, human
Procedure: The observation that tumor cells treated with IL-4 display a reduced sensitivity to chemotherapeutic drugs led us to investigate whether this cytokine would influence the expression of apoptosis regulatory genes. Western blot analysis of apoptosis-related proteins was performed on cancer cell lines treated for 48 hours with IL-4 as compared to untreated or IL-2-treated controls. […] The increased expression of cFlip/FLAME-1 prompted us to investigate if IL-4 could protect tumor cells from death receptor stimulation. CD95 ligand (CD95L) is one of the major effector molecules of cytotoxic T lymphocytes and NK cells.
Cell pellets were washed twice with cold PBS and lysed on ice for 30 minutes with 1% NP40 lysis buffer (20 mM Tris-HCl pH 7.2, 200 mM NaCl, 1% NP40) in the presence of 1 mM phenylmethylsulphonyl fluoride (PMSF) and 2 μg/ml each of aprotinin, leupeptin and pepstatin. Cell debris was removed by centrifugation at 13,000 rpm for 10 minutes at 4° C. Lysate concentration was determined using the Bio-Rad protein assay (Bio-Rad Laboratories, Richmond, Calif.). Aliquots of cell extracts containing 30 μg of total protein were resolved on 10% or 12% SDS-PAGE and transferred to a Hybond-C extra nitrocellulose membrane (Amersham Pharmacia Biotech, Piscataway, N.J.). […]

B1: IL-4: human recombinant IL-4 (protein, UniProt P05112 25-153, looked up)
Interleukin-4: HKCDITLQEIIKTLNSLTEQKTLCTELTVTDIFAASKNTTEKETFCRAATVLRQFYSHHEKDTRCLGATAQQFHRHKQLIRFLKRLDRNLWGLAGLNSCPVKEANQSTLENFLERLKTIMREKYSKCSS
Q: Which “prevention of death of normal thyrocytes exposed to cisplatinum, doxorubicin and taxol” value (normal thyrocytes) does the source give for B1 here?
A: drastically prevented death

Q: And the “levels of caspases and other pro- and anti-apoptotic Bcl-2 family members” value ([1]; 48 hours with IL-4)?
A: remained unchanged

Q: What about the “levels of Bcl-xL and cFlip/FLAME-1” value ([1]; 48 hours with IL-4, compared to untreated or IL-2-treated controls) of the same molecule?
A: increased

Source: patent publication US7645449B2, “Sensitizing cells for apoptosis by selectively blocking cytokines” (priority 2003, dated 2010)
